Data set [1] relates to PI16 mRNA in NHDF (Normal Human Dermal Fibroblast). The data set is described as follows: Timing of PI16 mRNA expression after TGFbeta treatment (RTqPCR). The class given is cell-based. The following applies: after 1 h of TGFbeta, FIG. 4A and B. Here is the method: Quantitative real-time PCR (RT-qPCR) was done using 5 μL of 1:20 diluted cDNA on the LightCycler480 system (Roche) using Maxima SYBR Green qPCR Master Mix (Fermentas). Forward and reverse primers were designed by Eurofins (MWG, αSMA forward: […] (SEQ ID NO:1), αSMA reverse: […] (SEQ ID NO:2)) and a 100 μM stock was stored at −20° C. Forward and reverse primer pairs were used for each RT-qPCR reaction. The cycling conditions were as follows: an initial 95° C. for 10 minutes, followed by 45 cycles of 95° C. for 15 sec, 58° C. for 30 sec, 72° C. for 20 sec. LightCycler 480 SW 1.5 was used to evaluate the TM curves, to determine the Cp and to approximate the relative concentration for each amplification reaction.
NHDF (Normal Human Dermal Fibroblast) were treated with TGFbeta as described previously for different times (between 1 h and 96 h). After treatment mRNA were extracted and levels of PI16 mRNA were assessed by RTqPCR.

The test system of another data set is αSMA expression in NHDF. In words: Ex vivo model for fibrosis or hypertrophic scar: αSMA expression by RT-qPCR and Western Blot. Format: cell-based, human. The following applies: fibroblasts cultivated with TGF-β (10 ng/mL TGF-β1); FIGS. 1 and 2. The protocol:
To study the myofibroblasts involved in generating hypertrophic or keloid scars, NHDF were cultivated on collagen coated culture plates in DMEM-F12 (Invitrogen), supplemented with 10% FCS (Invitrogen), 5 μg/mL of insulin and 1 ng/mL of b-FGF (PromoKine) and 10 ng/mL of TGF-β1 (Promocell), as TGF-β1 is known to induce the expression of αSMA in fibroblasts (Desmouliere A, Geinoz A, Gabbiani F, Gabbiani G (1993) Transforming growth factor-beta 1 induces alpha-smooth muscle actin expression in granulation tissue myofibroblasts and in quiescent and growing cultured fibroblasts. J Cell Biol, 1993 July, 122(1): 103-111). […]
This αSMA expression was assessed by RT-qPCR (mRNA levels) and by Western Blot (protein).
Total proteins were extracted by scratching the cells with lysis buffer (TRIS, NaCl, NP40, EDTA, IMDTT) and incubated 30 min in ice. […] Protein concentration was determined according to BCA method (Sigma). […] Signals were detected by ECL chemiluminescence using UptiLight HS WB Substrate (Uptima, Interchim). Bands were digitized with a scanner and the ratio between all bands density of the same blot was calculated by software (ImageJ 1.43u, 64-bit). […]
After four days of experiment, treated fibroblasts were detached with TRIzol Reagent (Invitrogen) and stored at −80° C. […] Total RNA was quantified on the NanoDrop 2000c Spectrophotometer (Thermo Scientific). […]
Background: In qPCR the cycle at which signal appears reflects the starting amount.

For “TGF-β: TGF-β1 (Promocell), known to induce the expression of αSMA in fibroblasts”, in data set [1], the “PI16 mRNA up regulation after TGFbeta treatment” value worked out at 3 ×. For the same substance, in the data set on αSMA expression in NHDF, the “αSMA expression (mRNA and protein)” value was “high level”.

Source of the values: patent US20150087527A1, “METHOD AND KIT FOR THE CLASSIFICATION AND PROGNOSIS OF TISSUE OR ORGAN FIBROSIS IN A REPARATIVE OR REACTIVE PROCESS” (VIVATECH, priority 2012, published 2015).
